Test results reported in patent US20230295301A1 (SHANGHAI JUNSHI BIOSCIENCES, published 2023).

T1: huCTLA-4 (human, UniProt P16410 36-161)
T1 construct: also called human CTLA (huCTLA) antigen; huCTLA4 recombinant protein
T1 sequence: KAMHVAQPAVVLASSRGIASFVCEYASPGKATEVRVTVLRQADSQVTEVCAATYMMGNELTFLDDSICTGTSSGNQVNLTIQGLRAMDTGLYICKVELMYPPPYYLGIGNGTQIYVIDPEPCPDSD

T2: TIGIT on 293T-TIGIT cells (UniProt Q495A1 22-244, limits assumed)
T2 construct: whole, on cells
T2 sequence (looked up): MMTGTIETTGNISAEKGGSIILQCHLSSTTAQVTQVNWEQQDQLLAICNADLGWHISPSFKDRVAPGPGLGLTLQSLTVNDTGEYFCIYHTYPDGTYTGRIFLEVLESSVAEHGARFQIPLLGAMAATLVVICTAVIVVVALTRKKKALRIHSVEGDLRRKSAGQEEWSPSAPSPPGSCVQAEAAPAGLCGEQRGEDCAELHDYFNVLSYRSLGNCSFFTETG

T3: huCTLA-4 ECD (his-tag) (human, UniProt P16410 37-162)
T3 construct: also called HX1 hCTLA4 his; HX1 huCTLA4 his; not shown: his-tag
T3 sequence: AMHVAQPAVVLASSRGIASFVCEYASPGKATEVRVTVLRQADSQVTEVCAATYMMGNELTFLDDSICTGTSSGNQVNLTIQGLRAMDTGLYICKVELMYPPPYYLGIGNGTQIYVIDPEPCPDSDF

T4: huCTLA-4 expressed on cells (human, UniProt P16410 36-223)
T4 construct: the construct in the cells is not described; also called HuCTLA-4-expressing CHO cells; huCTLA-4-expressing Jurkat effector cells
T4 sequence: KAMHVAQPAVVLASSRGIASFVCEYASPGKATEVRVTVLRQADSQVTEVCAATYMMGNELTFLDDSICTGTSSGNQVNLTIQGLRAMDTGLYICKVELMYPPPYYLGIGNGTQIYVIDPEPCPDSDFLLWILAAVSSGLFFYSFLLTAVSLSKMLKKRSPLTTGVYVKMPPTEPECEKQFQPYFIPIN


Assays:
huCTLA-4 [1] = target: T1, huCTLA-4; test: ForteBio
BTLA on 293T-BTLA cells = target: T5, BTLA on 293T-BTLA cells (UniProt Q7Z6A9 31-289, limits assumed); test: flow cytometry on 293T-BTLA cells
T5 construct: whole, on cells
Description: (§1) Then the above cell mixture was incubated with 5 μL of APC-labeled murine secondary antibody (Southern Biotech) at 4° C. for 20 min, and the secondary antibody bound onto the cells was detected. The control antibody was selected from commercially available CTLA4 monoclonal antibody L3D10 (BioLegend) and TIGIT monoclonal antibody MBSA43 (eBioscience).

[2] = target: T2, TIGIT on 293T-TIGIT cells; test: flow cytometry on 293T-TIGIT cells
Description: as §1

huCTLA-4 ECD (his-tag) [3] = target: T3, huCTLA-4 ECD (his-tag); test: ELISA, coated huCTLA-4 his
Procedure, shortened: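 Plates coated with his-tagged human CTLA-4 at 1.0 μg/mL for 90 min at 37° C, then blocked with 2% BSA. Antibodies serially diluted 2.5-fold from 1000 ng/mL and bound 60 min at 37° C. Detection by HRP anti-human IgG Fc and TMB (15 min), acid stop, absorbance at 450/620 nm.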

[4] = target: T4, huCTLA-4 expressed on cells; test: FACS on huCTLA-4-expressing CHO cells
Description: (§2) 6.2 FACS Detection of Binding of Chimeric Antibodies to huCTLA-4-Expressing Cells HuCTLA-4-expressing cells (constructed in-house by Junmeng; CHO from ATCC) were co-incubated with each of the chimeric antibodies in Table 3 and the control antibody (ipilimumab) (serially diluted 3-fold from an initial concentration of 10 μg/mL) at room temperature for 30 min, and then a fluorescent secondary antibody (PE-anti human IgG) was added to detect the binding of the chimeric antibodies to the huCTLA-4-expressing cells.

huCTLA-4 ECD (his-tag) [5] = target: T3, huCTLA-4 ECD (his-tag); test: competition ELISA, coated huCTLA-4 his, competitor hCD80 Fc
Description: HX1 huCTLA4 his was diluted with PBS (Hyclone) to 1.0 μg/mL, and the dilution was added to a microplate at 100 μL/well. The plate was let stand in an incubator at 37° C. and incubated for 90 min and then washed, and 2% BSA was added to the plate at 200 μL/well. The plate was incubated in an incubator at 37° C. for 90 min and then washed. MX2 hCD80 Fc was diluted with 2% BSA to 5.0 μg/mL, and the dilution was used to dilute samples. The chimeric antibodies and the control antibody ipilimumab were diluted to 100 μg/mL. The dilution performed each time was not higher than 10-fold. Then, the chimeric antibodies and the control antibody were serially diluted 2.5-fold on a sample dilution plate. All the chimeric antibody solutions and the control antibody solution were added to a microplate at 100 μL/well. The plate was incubated in an incubator at 37° C. for 90 min and then washed. An HRP-conjugated goat anti-mouse antibody IgG (Fc specific) (Sigma, Catalog No. A2554) was diluted 5000-fold with 2% BSA, and the dilution was added to the microplate at 100 μL/well. The plate was incubated in an incubator at 37° C. for 60 min and then washed. The color development solution TMB was added at 100 μL/well, during which bubbles were avoided. Color development was allowed at 37° C. for 15 min in the dark and then terminated by adding 2 M hydrochloric acid solution at 100 μL/well, during which bubbles were avoided. Reading (wavelength: 450/620 nm) was done within 10 min using a microplate reader.

huCTLA-4 [6] = target: T1, huCTLA-4; test: FACS blocking, huCTLA4 recombinant protein on CD80-expressing CHO cells; CD80-expressing CHO cells
Description: (§3) The chimeric antibodies in Table 3 and the control antibody ipilimumab (serially diluted 3-fold from an initial concentration of 30 μg/mL) were each added to CD80- or CD86-expressing CHO cells (constructed in-house by Junmeng) together with a certain concentration of huCTLA4 recombinant protein. After they were co-incubated at room temperature for 30 min, a fluorescent secondary antibody (PE-anti human IgG4) (Southern biotech) was added to determine the abilities of the chimeric antibodies to block the binding of huCTLA-4 to the CD80/CD86-expressing cells.

huCTLA-4 [7] = target: T1, huCTLA-4; test: FACS blocking, huCTLA4 recombinant protein on CD86-expressing CHO cells; CD86-expressing CHO cells
Description: as §3

[8] = target: T4, huCTLA-4 expressed on cells; test: FACS: huCTLA-4-expressing CHO cells, antibody 3-fold dilutions from 10 µg/mL, PE anti-human IgG; unit from the axis 'log(JS007 concentration (ng/mL))'
Description: as §2

huCTLA-4 ECD (his-tag) [9] = target: T3, huCTLA-4 ECD (his-tag); test: ELISA: huCTLA-4 his coated at 1.0 µg/mL, antibody 2.5-fold dilutions from 1000 ng/mL, HRP goat anti-human IgG (Fc), OD 450 nm; unit from the axis 'Log ng/mL'
Description: HX1 hCTLA4 his was diluted with PBS (Hyclone) to 1.0 μg/mL, and the dilution was added to a microplate at 100 μL/well. The plate was let stand in an incubator at 37° C. and coated for 90 min and then washed, and 2% BSA was added to the plate at 200 μL/well. The plate was incubated in an incubator at 37° C. for 90 min and then washed. The chimeric antibodies in Table 3 and the control antibody (ipilimumab) were diluted with a diluent (2% BSA) to 1000 ng/mL. The dilution performed each time was not higher than 10-fold. Then, the chimeric antibodies and the control antibody were serially diluted 2.5-fold on a sample dilution plate. All the chimeric antibody solutions and the control antibody solution were added to a microplate at 100 μL/well. The plate was incubated in an incubator at 37° C. for 60 min and then washed. A horseradish peroxidase (HRP)-conjugated goat anti-human antibody IgG (Sigma, Catalog No. A0170) (Fc specific) was diluted 5000-fold with 2% BSA, and the dilution was added to the microplate at 100 μL/well. The plate was incubated in an incubator at 37° C. for 60 min and then washed. The color development solution TMB was added at 100 μL/well, during which bubbles were avoided. […] Reading (wavelength: 450/620 nm) was done within 10 min using a microplate reader.

Binder | Kd (huCTLA-4 [1]) [nM] | binding result (BTLA on 293T-BTLA cells) | binding result [2] | EC50 (huCTLA-4 ECD (his-tag) [3]) [µg/mL] | EC50 [4] [µg/mL] | IC50 (huCTLA-4 ECD (his-tag) [5]) [µg/mL] | IC50 (huCTLA-4 [6]) [ng/mL] | IC50 (huCTLA-4 [7]) [ng/mL] | further results
5B9.1 (antibody, V domains shown, Murine hybridoma antibody) VH: EVQLQQSGPELVKPGASVKMSCKASGYTFTDYYMKWMKQSHGKSLEWIGHINPNNGDTFYNQKFTGKATLTVDKSSSTASMHLNSLTSEDSAVYYCARGGDGRGTWFAYWGQGTLVTVSS VL: not shown | < 0.001 | no binding (tested: 1 µg of hybridoma antibody) | no binding (tested: 1 µg of hybridoma antibody) |  |  |  |  |  | 
JS007-20 (antibody, V domains shown, also called JS007-20 chimeric antibody) VH: EVQLQQSGPELVKPGASVKMSCKASGYTFTDYYMKWMKQSHGKSLEWIGHINPNNGDTFYNQKFTGKATLTVDKSSSTASMHLNSLTSEDSAVYYCARGGDGRGTWFAYWGQGTLVTVSS VL: not shown |  |  |  | 0.0129 | 0.486 | 0.187 | 1.21 | 0.253 | 
JS007-1 (antibody, V domains shown, also called chimeric antibody JS007-1 (1A5.1 VH with 1A5.1 VL)) VH: DVQLQESGQGLVKPSQSLSLTCSVTGYSITSGYYWNWIRQFPGNKLEWLGYIGYDGSNYYNPSLKNRISITRDTSKNQFFLKLNSVTSEDTATYFCARNYYSGYFDFWGQGTTLTVSS VL: DIVMTQSQKFMSTSVGDRVSVTCKASQIVGSYVAWYQQKLGQSPKALIYSTSYRHSGVPDRFTGSGSGTDFTLTISNVQSEDLAEYFCQQHHLPLTFGAGTKLEIK |  |  |  |  |  |  |  |  | EC50 [8]: 4.18 ng/mL; EC50 (huCTLA-4 ECD (his-tag) [9]): ~788 µg/mL
1A5.1 (antibody, V domains shown, Murine hybridoma antibody) VH: DVQLQESGQGLVKPSQSLSLTCSVTGYSITSGYYWNWIRQFPGNKLEWLGYIGYDGSNYYNPSLKNRISITRDTSKNQFFLKLNSVTSEDTATYFCARNYYSGYFDFWGQGTTLTVSS VL: DIVMTQSQKFMSTSVGDRVSVTCKASQIVGSYVAWYQQKLGQSPKALIYSTSYRHSGVPDRFTGSGSGTDFTLTISNVQSEDLAEYFCQQHHLPLTFGAGTKLEIK | 1.74 | no binding (tested: 1 µg of hybridoma antibody) | no binding (tested: 1 µg of hybridoma antibody) |  |  |  |  |  | 
JS007-3 (antibody, V domains shown, also called JS007-3 chimeric antibody) VH: DVQLQESGQGLVKPSQSLSLTCSVTGYSITSGYYWNWIRQFPGNKLEWLGYIGYDGSNYYNPSLKNRISITRDTSKNQFFLKLNSVTSEDTATYFCARNYYSGYFDFWGQGTTLTVSS VL: DIVMTQSQKFMSTSVGDSVSVTCKASQNVGTYVAWYQQKPGQSPKPLIYSTSYRYSGVPDRFTGSGSGTDFTLTISNVQSEDLAEYFCHQYDTYPLTFGAGTKLELK |  |  |  | 0.0172 | 0.249 | 0.19 | 0.699 | 0.196 | 
JS007-15 (antibody, V domains shown, also called JS007-15 chimeric antibody) VH: DVQLQESGPGLVKPSQSLSLTCSVTAYSITSGYYWNWIRQFPGNKLEWMGYIGYDGSNNYNPSLKNRISITRDTSKNQFFLKLNSVTTEDTATYYCARDYYSGYFDSWGQGTTLTVSS VL: DIVMTQSQKFMSTSVGDSVSVTCKASQNVGTYVAWYQQKPGQSPKPLIYSTSYRYSGVPDRFTGSGSGTDFTLTISNVQSEDLAEYFCHQYDTYPLTFGAGTKLELK |  |  |  | 0.0197 | 0.189 | 0.19 | 0.398 | 0.0816 | 
HuJS007-88 (antibody, V domains shown, 1A5 VH6 + 4B7VL7; constant regions not specified) VH: QVQLQESGPGLVKPSQTLSLTCAVSGYSISSGYYWNWIRQFPGKGLEWMGYIGYDGSNYYNPSLKNRVTMSVDTSKNQFSLKLSSVTAVDTAVYYCARNYYSGYFDSWGQGTTVTVSS VL: EIVMTQSPATLSVSPGERATLSCRASQNVGTYVAWYQQKPGQAPRPLIYSTSYRYSGIPARFSGSGSGTEFTLTISSLQSEDFAVYYCHQYDTYPLTFGQGTKLEIK |  |  |  |  |  |  |  |  | binding result (huCTLA-4 ECD (his-tag) [3]): binds
3E6.1 (antibody, V domains shown, Murine hybridoma antibody) VH: EVKLVESGGGLVQPGGSLRLSCATSGFTFTDYYMSWVRQPPGKALEWLGFIRNKANGFTAEYSASVKGRFTISRDNSQSILYLQMNTLRAEDSATYYCARDSLAYPHYYAMDYWGQGTSVTVSS VL: QIVLTQSPALMSASPGEKVTMTCSASSSVSYMYWYQQKPRSSPKPWIYLTSNLASGVPVRFSGSGSGTSYSLTISSMEAEDAATYYCQQWSSNSFTFGSGTKLEIK | < 0.001 | no binding (tested: 1 µg of hybridoma antibody) | no binding (tested: 1 µg of hybridoma antibody) |  |  |  |  |  | 
JS007-11 (antibody, V domains shown, also called chimeric antibody JS007-11 (4B7.1-1 VH with 4B7.1-1 VL)) VH: EVQLQQSGAELVKSGASVKLSCTGSGFNIKDTYMHWVKQRPEEGLEWIGRIDPANGNTKSDPKFQGKATITADTSSNTAYLQLSSLTSVDTAVYYCARSMTTDPFTYWGQGTLVTVSS VL: DIVMTQSQKFMSTSVGDSVSVTCKASQNVGTYVAWYQQKPGQSPKPLIYSTSYRYSGVPDRFTGSGSGTDFTLTISNVQSEDLAEYFCHQYDTYPLTFGAGTKLELK |  |  |  |  |  |  |  |  | EC50 (huCTLA-4 ECD (his-tag) [9]): ~4010 µg/mL
